Experimental findings from IntAct's records for PubMed 28572511 are described below.

B1: Lysosomal cobalamin transport escort protein LMBD1 (Homo sapiens), Q9NUN5 (parent)
chain: MATSGAASAELVIGWCIFGLLLLAILAFCWIYVRKYQSRRESEVVSTITAIFSLAIALITSALLPVDIFLVSYMKNQNGTFKDWANANVSRQIEDTVLYGYYTLYSVILFCVFFWIPFVYFYYEEKDDDDTSKCTQIKTALKYTLGFVVICALLLLVGAFVPLNVPNNKNSTEWEKVKSLFEELGSSHGLAALSFSISSLTLIGMLAAITYTAYGMSALPLNLIKGTRSAAYERLENTEDIEEVEQHIQTIKSKSKDGRPLPARDKRALKQFEERLRTLKKRERHLEFIENSWWTKFCGALRPLKIVWGIFFILVALLFVISLFLSNLDKALHSAGIDSGFIIFGANLSNPLNMLLPLLQTVFPLDYILITIIIMYFIFTSMAGIRNIGIWFFWIRLYKIRRGRTRPQALLFLCMILLLIVLHTSYMIYSLAPQYVMYGSQNYLIETNITSDNHKGNSTLSVPKRCDADAPEDQCTVTRTYLFLHKFWFFSAAYYFGNWAFLGVFLIGLIVSCCKGKKSVIEGVDEDSDISDDEPSVYSA
partner: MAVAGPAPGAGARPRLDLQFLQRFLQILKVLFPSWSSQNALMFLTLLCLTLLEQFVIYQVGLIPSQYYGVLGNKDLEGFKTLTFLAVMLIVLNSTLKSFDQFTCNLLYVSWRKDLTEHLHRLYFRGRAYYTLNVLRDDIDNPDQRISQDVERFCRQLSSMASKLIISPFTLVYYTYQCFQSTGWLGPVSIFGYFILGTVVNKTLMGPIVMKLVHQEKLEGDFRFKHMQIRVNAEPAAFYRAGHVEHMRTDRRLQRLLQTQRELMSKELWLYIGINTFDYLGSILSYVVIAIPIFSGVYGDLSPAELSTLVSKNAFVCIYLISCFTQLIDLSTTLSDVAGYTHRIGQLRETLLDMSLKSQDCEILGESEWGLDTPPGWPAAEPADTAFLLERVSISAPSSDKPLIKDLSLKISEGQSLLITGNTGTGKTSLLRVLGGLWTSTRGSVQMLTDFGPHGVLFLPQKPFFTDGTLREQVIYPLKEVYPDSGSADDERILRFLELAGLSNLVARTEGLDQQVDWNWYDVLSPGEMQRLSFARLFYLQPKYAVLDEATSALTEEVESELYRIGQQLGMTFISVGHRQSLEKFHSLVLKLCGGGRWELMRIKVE
B2: Lysosomal cobalamin transporter ABCD4 (Homo sapiens), O14678 (parent)
chain: B1 partner
partner: B1 chain

Variants of B1 are the subject of the first test. The settings on record: with abcd4_human ABCD4, O14678.
Y232A: the “effect of a mutation on the interaction” value is recorded as “decreasing interaction strength”.

The variants in another test derive from B2. Particulars: with lmbd1_human LMBRD1, Q9NUN5.
For the variant G426A, the “effect of a mutation on the interaction” value is “decreasing interaction strength”.

In the case of G426A;K427L, the “effect of a mutation on the interaction” value is reported as “disrupting interaction strength”. The same measure, in the same setting: in the case of D548N it was “decreasing interaction strength”; in that of R432Q, “decreasing interaction strength”.

With N141K, the “effect of a mutation on the interaction” value is reported as “decreasing interaction strength”. With K427L, the “effect of a mutation on the interaction” value is on record as “decreasing interaction strength”.

Another test covers variants of B2. Particulars: with lmbd1_human LMBRD1, Q9NUN5. The source holds these as a separate data set.
Take G426A;K427L: the “effect of a mutation on the interaction” value is on record as “decreasing interaction strength”.
